B1: Speckle-type POZ protein (Homo sapiens), O43791 (parent)
chain: MSRVPSPPPPAEMSSGPVAESWCYTQIKVVKFSYMWTINNFSFCREEMGEVIKSSTFSSGANDKLKWCLRVNPKGLDEESKDYLSLYLLLVSCPKSEVRAKFKFSILNAKGEETKAMESQRAYRFVQGKDWGFKKFIRRDFLLDEANGLLPDDKLTLFCEVSVVQDSVNISGQNTMNMVKVPECRLADELGGLWENSRFTDCCLCVAGQEFQAHKAILAARSPVFSAMFEHEMEESKKNRVEINDVEPEVFKEMMCFIYTGKAPNLDKMADDLLAAADKYALERLKVMCEDALCSNLSVENAAEILILADLHSADQLKTQAVDFINYHASDVLETSGWKSMVVSHPHLVAEAYRSLASAQCPFLGPPRKRLKQS
partner: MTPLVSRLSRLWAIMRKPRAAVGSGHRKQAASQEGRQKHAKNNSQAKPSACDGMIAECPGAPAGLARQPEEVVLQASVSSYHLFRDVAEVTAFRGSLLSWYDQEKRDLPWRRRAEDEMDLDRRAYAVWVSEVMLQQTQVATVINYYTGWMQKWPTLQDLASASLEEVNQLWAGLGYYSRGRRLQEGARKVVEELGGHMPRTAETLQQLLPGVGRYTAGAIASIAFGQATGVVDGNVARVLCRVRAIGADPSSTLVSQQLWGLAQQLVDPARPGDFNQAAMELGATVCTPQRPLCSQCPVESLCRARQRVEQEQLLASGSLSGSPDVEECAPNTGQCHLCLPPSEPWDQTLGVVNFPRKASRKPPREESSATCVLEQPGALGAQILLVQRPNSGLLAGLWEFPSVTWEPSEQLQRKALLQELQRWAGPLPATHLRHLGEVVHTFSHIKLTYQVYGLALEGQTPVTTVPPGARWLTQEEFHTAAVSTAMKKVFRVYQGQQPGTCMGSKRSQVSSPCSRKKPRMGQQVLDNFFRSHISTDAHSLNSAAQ
B2: Speckle-type POZ protein (Homo sapiens), O43791 (parent)
chain: B1 chain
partner: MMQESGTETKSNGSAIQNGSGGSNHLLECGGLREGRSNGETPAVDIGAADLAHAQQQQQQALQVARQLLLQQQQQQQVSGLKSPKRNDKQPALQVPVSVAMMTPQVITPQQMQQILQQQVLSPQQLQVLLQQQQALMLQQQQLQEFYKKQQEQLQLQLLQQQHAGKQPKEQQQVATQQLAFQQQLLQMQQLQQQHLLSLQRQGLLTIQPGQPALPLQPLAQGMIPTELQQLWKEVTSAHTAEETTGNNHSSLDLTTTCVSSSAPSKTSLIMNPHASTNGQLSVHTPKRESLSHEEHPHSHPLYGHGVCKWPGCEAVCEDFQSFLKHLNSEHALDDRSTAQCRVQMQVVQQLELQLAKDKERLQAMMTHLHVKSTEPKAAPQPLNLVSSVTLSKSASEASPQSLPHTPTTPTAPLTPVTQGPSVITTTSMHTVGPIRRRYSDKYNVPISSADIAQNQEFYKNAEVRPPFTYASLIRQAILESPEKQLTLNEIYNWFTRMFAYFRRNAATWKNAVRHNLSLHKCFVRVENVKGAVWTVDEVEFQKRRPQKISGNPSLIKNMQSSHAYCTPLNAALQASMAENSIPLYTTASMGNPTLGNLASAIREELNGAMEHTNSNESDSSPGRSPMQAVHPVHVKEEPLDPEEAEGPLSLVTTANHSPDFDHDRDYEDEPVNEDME
B3: Speckle-type POZ protein (Homo sapiens), O43791 (parent)
chain: B1 chain
partner: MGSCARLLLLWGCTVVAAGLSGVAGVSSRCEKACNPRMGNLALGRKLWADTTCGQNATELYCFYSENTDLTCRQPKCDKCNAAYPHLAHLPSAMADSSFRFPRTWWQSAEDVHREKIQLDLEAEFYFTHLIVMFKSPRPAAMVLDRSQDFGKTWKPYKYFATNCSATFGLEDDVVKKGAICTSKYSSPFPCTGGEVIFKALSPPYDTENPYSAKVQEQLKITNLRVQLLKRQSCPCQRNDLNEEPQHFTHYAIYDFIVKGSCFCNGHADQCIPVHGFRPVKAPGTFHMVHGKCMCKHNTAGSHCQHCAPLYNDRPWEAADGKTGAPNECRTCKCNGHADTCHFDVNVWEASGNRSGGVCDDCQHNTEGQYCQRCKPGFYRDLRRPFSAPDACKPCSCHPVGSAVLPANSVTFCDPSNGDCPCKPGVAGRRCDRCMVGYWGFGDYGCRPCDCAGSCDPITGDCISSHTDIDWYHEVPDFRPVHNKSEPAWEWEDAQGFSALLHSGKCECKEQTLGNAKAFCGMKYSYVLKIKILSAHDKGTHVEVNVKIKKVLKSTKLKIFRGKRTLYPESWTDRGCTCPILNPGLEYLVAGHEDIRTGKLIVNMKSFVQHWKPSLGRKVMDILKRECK
B4: Speckle-type POZ protein (Homo sapiens), O43791 (parent)
chain: B1 chain
partner: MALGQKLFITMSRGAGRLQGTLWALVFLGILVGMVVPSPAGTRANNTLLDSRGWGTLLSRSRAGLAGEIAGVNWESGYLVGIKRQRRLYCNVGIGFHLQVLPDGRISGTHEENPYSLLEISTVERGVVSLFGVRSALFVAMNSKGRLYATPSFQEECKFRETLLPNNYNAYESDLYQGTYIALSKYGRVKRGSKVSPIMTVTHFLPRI
B5: Speckle-type POZ protein (Homo sapiens), O43791 (parent)
chain: B1 chain
partner: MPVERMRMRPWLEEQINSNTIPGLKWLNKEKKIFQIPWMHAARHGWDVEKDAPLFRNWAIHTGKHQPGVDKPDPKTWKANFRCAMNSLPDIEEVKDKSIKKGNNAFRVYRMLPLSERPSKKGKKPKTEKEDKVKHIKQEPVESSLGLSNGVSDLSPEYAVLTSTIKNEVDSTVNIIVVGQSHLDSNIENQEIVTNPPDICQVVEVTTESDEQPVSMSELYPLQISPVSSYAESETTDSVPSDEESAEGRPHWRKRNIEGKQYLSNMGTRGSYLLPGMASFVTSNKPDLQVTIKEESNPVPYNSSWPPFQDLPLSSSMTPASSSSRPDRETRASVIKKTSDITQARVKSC
B6: Speckle-type POZ protein (Homo sapiens), O43791 (parent)
chain: B1 chain
partner: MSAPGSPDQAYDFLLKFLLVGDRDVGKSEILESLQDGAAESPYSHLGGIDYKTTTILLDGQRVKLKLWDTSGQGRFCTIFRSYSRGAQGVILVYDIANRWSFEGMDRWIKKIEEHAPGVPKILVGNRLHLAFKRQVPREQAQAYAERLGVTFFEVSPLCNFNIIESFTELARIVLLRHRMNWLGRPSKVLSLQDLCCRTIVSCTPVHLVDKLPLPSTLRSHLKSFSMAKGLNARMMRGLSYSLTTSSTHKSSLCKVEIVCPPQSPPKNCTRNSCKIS
B7: Speckle-type POZ protein (Homo sapiens), O43791 (parent)
chain: B1 chain
partner: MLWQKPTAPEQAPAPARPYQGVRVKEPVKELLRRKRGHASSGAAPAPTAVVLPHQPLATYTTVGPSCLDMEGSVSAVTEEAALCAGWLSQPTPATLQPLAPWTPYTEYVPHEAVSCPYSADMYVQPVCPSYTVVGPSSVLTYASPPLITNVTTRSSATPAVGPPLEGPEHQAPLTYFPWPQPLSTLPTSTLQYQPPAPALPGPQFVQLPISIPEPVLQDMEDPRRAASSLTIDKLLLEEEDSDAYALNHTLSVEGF

Variants of: B1
Conditions: with mutyh_human MUTYH

Row | Variant | effect of a mutation on the interaction
1 | F133V | with no effect

Variants of: B2
Conditions: with foxp1_human FOXP1, Q9H334

Row | Variant | effect of a mutation on the interaction
2 | Y87C | with no effect

Variants of: B2
Conditions: with foxp1_human FOXP1, Q9H334
Remark: another data set of the same source

Row | Variant | effect of a mutation on the interaction
3 | F133V | causing an interaction

Variants of: B2
Conditions: with foxp1_human FOXP1, Q9H334
Remark: another data set of the same source

Row | Variant | effect of a mutation on the interaction
4 | F133L | with no effect

Variants of: B2
Conditions: with foxp1_human FOXP1, Q9H334
Remark: another data set of the same source

Row | Variant | effect of a mutation on the interaction
5 | F102C | with no effect

Variants of: B3
Conditions: with net4_human NTN4, Q9HB63

Row | Variant | effect of a mutation on the interaction
6 | F133V | with no effect

Variants of: B3
Conditions: with net4_human NTN4, Q9HB63
Remark: another data set of the same source

Row | Variant | effect of a mutation on the interaction
7 | F133L | with no effect

Variants of: B3
Conditions: with net4_human NTN4, Q9HB63
Remark: another data set of the same source

Row | Variant | effect of a mutation on the interaction
8 | Y87C | with no effect

Variants of: B3
Conditions: with net4_human NTN4, Q9HB63
Remark: another data set of the same source

Row | Variant | effect of a mutation on the interaction
9 | F102C | with no effect

Variants of: B4
Conditions: with fgf6_human FGF6, P10767

Row | Variant | effect of a mutation on the interaction
10 | Y87C | with no effect

Variants of: B4
Conditions: with fgf6_human FGF6, P10767
Remark: another data set of the same source

Row | Variant | effect of a mutation on the interaction
11 | F133V | with no effect

Variants of: B4
Conditions: with fgf6_human FGF6, P10767
Remark: another data set of the same source

Row | Variant | effect of a mutation on the interaction
12 | F133L | with no effect

Variants of: B4
Conditions: with fgf6_human FGF6, P10767
Remark: another data set of the same source

Row | Variant | effect of a mutation on the interaction
13 | F102C | with no effect

Variants of: B5
Conditions: with irf2_human IRF2, P14316

Row | Variant | effect of a mutation on the interaction
14 | F133V | with no effect

Variants of: B5
Conditions: with irf2_human IRF2, P14316
Remark: another data set of the same source

Row | Variant | effect of a mutation on the interaction
15 | F133L | with no effect

Variants of: B5
Conditions: with irf2_human IRF2, P14316
Remark: another data set of the same source

Row | Variant | effect of a mutation on the interaction
16 | Y87C | with no effect

Variants of: B5
Conditions: with irf2_human IRF2, P14316
Remark: another data set of the same source

Row | Variant | effect of a mutation on the interaction
17 | F102C | with no effect

Variants of: B6
Conditions: with rb40a_human RAB40A

Row | Variant | effect of a mutation on the interaction
18 | F133L | with no effect

Variants of: B6
Conditions: with rb40a_human RAB40A
Remark: another data set of the same source

Row | Variant | effect of a mutation on the interaction
19 | F133V | with no effect

Variants of: B6
Conditions: with rb40a_human RAB40A
Remark: another data set of the same source

Row | Variant | effect of a mutation on the interaction
20 | Y87C | with no effect

Variants of: B6
Conditions: with rb40a_human RAB40A
Remark: another data set of the same source

Row | Variant | effect of a mutation on the interaction
21 | F102C | with no effect

Variants of: B7
Conditions: with obf1_human POU2AF1, Q16633

Row | Variant | effect of a mutation on the interaction
22 | F133L | with no effect

Variants of: B7
Conditions: with obf1_human POU2AF1, Q16633
Remark: another data set of the same source

Row | Variant | effect of a mutation on the interaction
23 | F133V | with no effect

From IntAct's records for PubMed 35512704
